{"source": "paper PMC9792189", "origin": "cited, not measured here", "data": [{"target": "SARS-CoV-2 S1/RBD (target in cited aptamer papers) (SARS-CoV-2) (UniProt P0DTC2)", "assay": "SPR", "units": {"Kd": "nM"}, "values": [{"sequence": "AAAGCCACAACGAGCTCGGGTGAAAGCAGTCCGTTGAGTAGGCTTGCGGCTGCGTGGCATATCGATT [SSapt1]", "Kd": 105}, {"sequence": "TTCCGGTTAATTTATGCTCTACCCGTCCACCTACCGGAA [MSA1T]", "Kd": 2.8}, {"sequence": "CAGCACCGACCTTGTGCTTTGGGAGTGCTGGTCCAAGGGCGTTAATGGACA [CoV2-RBD-1C]", "Kd": 3.1}, {"sequence": "TTCCGGTTAATTTATGCTCTACCCGTCCACCTACCGGAATTTTTTTTTTTTTTTTTTTTTTTTTTTTTTACGGGTTTGGCGTCGGGCCTGGCGGGGGGATAGTGCGGT [DSA1N5]", "Kd": 0.51}, {"sequence": "ATTACCGATGGCTTGTTTGTAATGTAGGGTTCCGTCGGAT [Aptamer-2]", "Kd": 27}, {"sequence": "TCGAGTGGCTTGTTTGTAATGTAGGGTTCCGGTCGTGGGT [Aptamer-1]", "Kd": 28}, {"sequence": "GGGGTGGGGTAGTGGTATGGAGCG [XN-268s]", "Kd": 4.26}, {"sequence": "ACGGGTTTGGCGTCGGGCCTGGCGGGGGGATAGTGCGGT [MSA5T]", "Kd": 10.1}]}]}
